Molecular target: HLA-A*02:01 (Homo sapiens, UniProt P04439, D140Y/D185E/D98H/E176V/E277Q/G131W/G231S/I119V/I121R/I166T/I218V/L300P/L318F/N151K/N90K/P208A/P217A/Q86G/Q94H/R138H/R169H/T345S)
Experiment: MHC binding assay (UV-ligand exchange, ELISA of stabilized MHC complexes)
Details: MHC class I binding score; binding to HLA-A*02:01 ranged by peptide exchange yield (UV-ligand exchange, ELISA)
Source text: Candidate peptides for T cell based therapies according to the present invention were further tested for their MHC binding capacity (affinity). The individual peptide-MHC complexes were produced by UV-ligand exchange, where a UV-sensitive peptide is cleaved upon UV-irradiation, and exchanged with the peptide of interest as analyzed. Only peptide candidates that can effectively bind and stabilize the peptide-receptive MHC molecules prevent dissociation of the MHC complexes. To determine the yield of the exchange reaction, an ELISA was performed based on the detection of the light chain (β2m) of stabilized MHC complexes. The assay was performed as generally described in Rodenko et al. (Rodenko et al., 2006).
96 well MAXISorp plates (NUNC) were coated over night with 2 ug/ml streptavidin in PBS at room temperature, washed 4× and blocked for 1h at 37° C. in 2% BSA containing blocking buffer. […] Peptide-MHC monomers of the UV-exchange reaction were diluted 100 fold in blocking buffer. Samples were incubated for 1h at 37° C., washed four times, incubated with 2 ug/ml HRP conjugated anti-82m for 1h at 37° C., washed again and detected with TMB solution that is stopped with […]. Absorption was measured at 450 nm. Candidate peptides that show a high exchange yield (preferably higher than 50%, most preferred higher than 75%) are generally preferred for a generation and production of antibodies or fragments thereof, and/or T cell receptors or fragments thereof, as they show sufficient avidity to the MHC molecules and prevent dissociation of the MHC complexes.

| Substance | Peptide exchange |
| --- | --- |
| 132 (LLVEQPPLAGV; listed as Homo sapiens) [compound 132] | ″+++″ (≥50% = +++) |
| 287 (FLNEFFLNV; listed as Homo sapiens) [compound 287] | ″+++″ (≥50% = +++) |
| 350 (ALLDVTHSELTV; listed as Homo sapiens) [compound 350] | ″+++″ (≥50% = +++) |
| 545 (LLADLLHNV; listed as Homo sapiens) [compound 545] | ″+++″ (≥50% = +++) |
| 44 (ILDPISSGFLL; listed as Homo sapiens) [compound 44] | ″++″ (≥20% = ++) |
| 543 (GLLPTPITQQASL; listed as Homo sapiens) [compound 543] | ″+++″ (≥50% = +++) |
| 264 (SLQEQLHSV; listed as Homo sapiens) [compound 264] | ″+++″ (≥50% = +++) |
| 340 (ALLSMTFPL; listed as Homo sapiens) [compound 340] | ″++++″ (≥75% = ++++) |
| 174 (ALAQYLITA; listed as Homo sapiens) [compound 174] | ″+++″ (≥50% = +++) |
| 91 (IMQDFPAEIFL; listed as Homo sapiens) [compound 91] | ″++++″ (≥75% = ++++) |
| 497 (GLLEKLTAI; listed as Homo sapiens) [compound 497] | ″+++″ (≥50% = +++) |
| 314 (ALIAEGIALV; listed as Homo sapiens) [compound 314] | ″+++″ (≥50% = +++) |
| 224 (TLIDAQWVL; listed as Homo sapiens) [compound 224] | ″+++″ (≥50% = +++) |
| 357 (SMHDLVLQV; listed as Homo sapiens) [compound 357] | ″+++″ (≥50% = +++) |
| 491 (GLNDRSDAV; listed as Homo sapiens) [compound 491] | ″++″ (≥20% = ++) |
| 359 (YLLPESVDL; listed as Homo sapiens) [compound 359] | ″+++″ (≥50% = +++) |
| 366 (RLLDMGETDLML; listed as Homo sapiens) [compound 366] | ″+++″ (≥50% = +++) |
| 433 (AMLNEPWAV; listed as Homo sapiens) [compound 433] | ″+++″ (≥50% = +++) |
| 617 (ALMYESEKVGV; listed as Homo sapiens) [compound 617] | ″+++″ (≥50% = +++) |
| 107 (FLQPVDDTQHL; listed as Homo sapiens) [compound 107] | ″+++″ (≥50% = +++) |

| Substance | Peptide exchange |
| --- | --- |
| 612 (YLYNEGLSV; listed as Homo sapiens) [compound 612] | ″+++″ (≥50% = +++) |
| 148 (ALNPEIVSV; listed as Homo sapiens) [compound 148] | ″++″ (≥20% = ++) |
| 346 (LLDSKVPSV; listed as Homo sapiens) [compound 346] | ″+++″ (≥50% = +++) |
| 61 (FLQGYQLHL; listed as Homo sapiens) [compound 61] | ″++++″ (≥75% = ++++) |
| 125 (VQIHQVAQV; listed as Homo sapiens) [compound 125] | ″+++″ (≥50% = +++) |
| 172 (VLYSYTIITV; listed as Homo sapiens) [compound 172] | ″++″ (≥20% = ++) |
| 1 (SLMEPPAVLLL; listed as Homo sapiens) [compound 1] | ″+++″ (≥50% = +++) |
| 429 (GLVNDLARV; listed as Homo sapiens) [compound 429] | ″++″ (≥20% = ++) |
| 210 (LLLNAVLTV; listed as Homo sapiens) [compound 210] | ″++″ (≥20% = ++) |
| 580 (LLMENAERV; listed as Homo sapiens) [compound 580] | ″++″ (≥20% = ++) |
| 607 (RLYSGISGLEL; listed as Homo sapiens) [compound 607] | ″+++″ (≥50% = +++) |
| 164 (ALLPQPKNLTV; listed as Homo sapiens) [compound 164] | ″+++″ (≥50% = +++) |
| 110 (FLSQVDFEL; listed as Homo sapiens) [compound 110] | ″+++″ (≥50% = +++) |
| 239 (AAFAGKLLSV; listed as Homo sapiens) [compound 239] | ″+++″ (≥50% = +++) |
| 558 (GLLENIPRV; listed as Homo sapiens) [compound 558] | ″+++″ (≥50% = +++) |
| 343 (SLLEVNEESTV; listed as Homo sapiens) [compound 343] | ″+++″ (≥50% = +++) |
| 225 (SLLKVLPAL; listed as Homo sapiens) [compound 225] | ″+++″ (≥50% = +++) |
| 441 (ALLENPKMEL; listed as Homo sapiens) [compound 441] | ″+++″ (≥50% = +++) |
| 408 (VLDDSIYLV; listed as Homo sapiens) [compound 408] | ″++″ (≥20% = ++) |
| 244 (SLFGGTEITI; listed as Homo sapiens) [compound 244] | ″+++″ (≥50% = +++) |

| Substance | Peptide exchange |
| --- | --- |
| 498 (KLWTGGLDNTV; listed as Homo sapiens) [compound 498] | ″+++″ (≥50% = +++) |
| 80 (FLYDNLVESL; listed as Homo sapiens) [compound 80] | ″++″ (≥20% = ++) |
| 339 (GLWEIENNPTVKA; listed as Homo sapiens) [compound 339] | ″++++″ (≥75% = ++++) |
| 175 (YLFENISQL; listed as Homo sapiens) [compound 175] | ″+++″ (≥50% = +++) |
| 485 (NVPDSFNEV; listed as Homo sapiens) [compound 485] | ″+++″ (≥50% = +++) |
| 507 (KLIDDQDISISL; listed as Homo sapiens) [compound 507] | ″+++″ (≥50% = +++) |
| 327 (GLAPFTEGISFV; listed as Homo sapiens) [compound 327] | ″+++″ (≥50% = +++) |
| 51 (LLPDLEFYV; listed as Homo sapiens) [compound 51] | ″++++″ (≥75% = ++++) |
| 574 (YLLQEPPRTV; listed as Homo sapiens) [compound 574] | ″++″ (≥20% = ++) |
| 280 (VLPDPEVLEAV; listed as Homo sapiens) [compound 280] | ″+++″ (≥50% = +++) |
| 484 (SLIEKVTQL; listed as Homo sapiens) [compound 484] | ″+++″ (≥50% = +++) |
| 522 (TLWYRSPEV; listed as Homo sapiens) [compound 522] | ″++″ (≥20% = ++) |
| 510 (KLYSVVSQL; listed as Homo sapiens) [compound 510] | ″++″ (≥20% = ++) |
| 469 (YLASDEITTV; listed as Homo sapiens) [compound 469] | ″+++″ (≥50% = +++) |
| 601 (SAFPFPVTV; listed as Homo sapiens) [compound 601] | ″+++″ (≥50% = +++) |
| 254 (TLLAFIMEL; listed as Homo sapiens) [compound 254] | ″+++″ (≥50% = +++) |
| 599 (YLLNDASLISV; listed as Homo sapiens) [compound 599] | ″+++″ (≥50% = +++) |
| 537 (TLAPGEVLRSV; listed as Homo sapiens) [compound 537] | ″+++″ (≥50% = +++) |
